Results on 4 molecules are retold here after publication PMC9911985 (Journal of Molecular Biology, 2023).

Where no end group is shown, it is not given here. MBP = not defined here

For this experiment, the target named is nsp7 with a C-terminal strep-tag II (nsp7-strep), SARS-CoV-2 nonstructural protein 7 (SARS-CoV-2, UniProt P0DTD1 3860-3942). The experiment is described as follows: pull-down.
Turning to {6xHis-MBP}-SCILLYVVFQKLSARLRALR (domain or fragment, reading uncertain) [6xHis-MBP-selenos 40–59], the binding result is recorded as “binds”. As to {6xHis-MBP}-GWYIVFSCILLYVVFQKLSARLRALR (domain or fragment, reading uncertain) [6xHis-MBP-selenos 34–59], the binding result was “binds”. Then {6xHis-MBP}-SCILLYVVFQKLSARLRALRQRQLDR (domain or fragment, reading uncertain) [6xHis-MBP-selenos 40–65], with “binds”; and {6xHis-MBP}-GWYIVFSCILLYVVFQKLSARLRALRQRQLDR (domain or fragment, reading uncertain) [6xHis-MBP-selenos 34–65], with “binds”.
